Assay results taken from article PMC9711875.

Target: CD177 (UniProt Q8N6Q3)
Experiment: SPR; Biacore T200; CD177 amine coupled to a CM5 chip (about 770 counts for kinetic measurements); PR3 or AAT as soluble analytes in 10 mM HEPES, 150 mM NaCl, 0.05% Tween20; 30 μL/minute; 25°C

Kd: 20 nM
B1: purified proteinase 3 (enzyme)
chain: IVGGHEAQPHSRPYMASLQMRGNPGSHFCGGTLIHPSFVLTAAHCLRDIPQRLVNVVLGAHNVRTQEPTQQHFSVAQVFLNNYDAENKLNDVLLIQLSSPANLSASVATVQLPQQDQPVPHGTQCLAMGWGRVGAHDPPAQVLQELNVTVVTFFCRPHNICTFVPRRKAGICFGDSGGPLICDGIIQGIDSFVIWGCATRLFPDFFTRVALYVDWIRSTLR
